Laboratory results: patent US20260139026A1 (published 2026)

Experiments:
[1] = target: T1, PIK3CA H1047L peptide on HLA-A*03:01 (human); experiment: multimer staining
T1 peptide: ALHGGWTTK

[2] = target: T2, PIK3CA H1047L (8-mer) peptide on HLA-A*03:01 (human); experiment: cytokine release
T2 peptide: LHGGWTTK

[3] = target: T3, PIK3CA H1047L (10-mer) peptide on HLA-A*03:01 (human); experiment: cytokine release
T3 peptide: DALHGGWTTK

binding result [1]: recognises
binding result [2]: recognises
binding result [3]: recognises
B1: 1022T8 (TCR, V domains shown)
Valpha: GDSVTQMEGPVTLSEEAFLTINCTYTATGYPSLFWYVQYPGEGLQLLLKATKADDKGSNKGFEATYRKETTSFHLEKGSVQVSDSAVYFCALTVGGSYIPTFGRGTSLIVHP
Vbeta: DTEVTQTPKHLVMGMTNKKSLKCEQHMGHRAMYWYKQKAKKPPELMFVYSYEKLSINESVPSRFSPECPNSSLLNLHLHALQPEDSALYLCASSQGGQGWRETQYFGPGTRLLVL
